Assay results as given in the nanobody polyreactivity screen of Harvey et al. (2022).

Experiment: yeast display, Sf9 membrane polyspecificity reagent, FACS + sequencing; frameworks hold sequencing errors
How it was run: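 Synthetic nanobody libraries on Saccharomyces cerevisiae BJ5465 were galactose-induced for 36–48 hours, stained 1 hour at 4 °C with 10% biotinylated, detergent-solubilized Sf9 membrane reagent and enriched on streptavidin microbeads. FACS then separated cells into low and high (top ~1%) gates by anti-HA (expression) and streptavidin (reagent binding) fluorescence. Genes were colony-PCR amplified, MiSeq 2 × 250 sequenced and CDR-length filtered. A clone's polyreactivity label is that of its gate of origin.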

| Sequence | polyreactivity (PSR sort gate) |
| --- | --- |
| QVQLVESGGGLVQAGGSHRLSCAASGRTFSPNAMGWYRQAPGKERELVAAISYRSYRTYYADSVKGRFTISRDKAKNTVYLQMNSLKPEDTAVYYCNADRTRGFQRYDYWGQGTQVTVSS | high polyreactivity |
| QVQLVESGGGLVQAGGSHRLSCAASGRTFSPYVMGWSREAPGKEREYVARITWSGGSTYYADSVKGRFTISRDNAMYTVYLQMNSLKPEDTAVYYCNARGVFYVYKHDYWGQGTQVTVSS | high polyreactivity |
| QVQLVESGGGLVQAGGSHRLSCAASGRTFWKYVMGWYRQAPGTERELVAVISRPAGSTYYADSVKGRFTISRHNEKNTVYLQMNSLKPEDTAVYYCAKRPKNKPVLGDYDHWGQGTQVTVSS | low polyreactivity |
| QVQLVESGGGLVQAGGSHRLSCAASGRTFWYTMGWYRQAPGKERELVAAITWSGGSTYYADSVKGRFTISRDNAMNTVYLQMNSLNPEDTAVYYWNAADYQLWFGYDYWGQGTQVTVSS | low polyreactivity |
| QVQLVESGGGLVQAGGSHRLSCAASGSIFKDNAMGWYRQAPGKERELVAAITSGASTNYADSVKGRFTMSRDNAKNTVYLQMNSLKPEDTAVYYCAAGTRPTRFVGTKYDYWGQGTQVTVSS | low polyreactivity |
| QVQLVESGGGLVQAGGSHRLSCAASGSIFRRYAMGWYRQAPGKERELVAAIDSGGNTYADSVKGRFTISRDNAKNTVYLQMISLQPEDTAVYYCSADGGEFSSYGYWGQGTQVTVSS | low polyreactivity |
| QVQLVESGGGLVQAGGSHRLSCAASGSIFRWYAMGWYRQAPGKERELVAAITSGGGTNYADSVKGRFTISRDNAKNTVYIQMNCLKPEDTAVYYCNAAAWLRWGYRGGFWRYDYWGQGTQVTVSS | high polyreactivity |
| QVQLVESGGGLVQAGGSHRLSCAASGSIFSYYAMGWYRPAPGKERELVAAISWGDDSTYYAASVKGRFTISRDNEKNTVYLHMNSLKPEDTAVYYCAADRVGWYRTFDYWGQGSQVTVSS | low polyreactivity |
| QVQLVESGGGLVQAGGSHRLSCAASGSIFYVNAMGWYRQSPGKERELVAAINRGGVSTYYADSVKGRFTISRDNAKNTVYLLMNSLKPEDTAVYYCATDFYLSTYSHYVWLYGYEFYYWGQGTQVTVSS | low polyreactivity |
| QVQLVESGGGLVQAGGSHRLSCAASGSILEIYAMGWYRQAPGKEREFVASISWDVSSTYYADSVKGRFTISRDNAKNTVYLQMYSLKPEDPAVYYCATSLVWGLYDWYYDLSAAFDYWGQGTQVTVSS | low polyreactivity |
| QVQLVESGGGLVQAGGSHRLSCAASGSNAMGWYRQAHGKERELVAVITGGGSTHYADSVKGRYTISRDNAKNTVYLLMNSLKAEVTAVYYCAAVYWHSRGKFADIAVDYWGQGTQVTVSS | low polyreactivity |
| QVQLVESGGGLVQAGGSHRLSCAASGSTFTKNAMGWYRQAPGKERELVATISSGGYTNYADSVKGRFTISRDNAKNSVYLQMNSLKPEDTAVYYCNAVYRYRTRREYGYWGQGTQVTVSS | high polyreactivity |
| QVQLVESGGGLVQAGGSHRLSCAASGSTFYYYAMGWYRQAPGKERELVAAISKSGGRTYYADSVKGRFTFSRDNAKNTVYLQMNSLKPEDTAVYYCNAVQYLNGYDYWGQGTQVTVSS | high polyreactivity |
| QVQLVESGGGLVQAGGSHRLSCADSGRTFRTYAMGWYRQAPGKERELVAAITTSGSSTYYADSVKGRFTISRDNAKNTVYLQMNSLKPEDTAVYYCAAARSAIVPGYYSWGQGTQVTVSS | low polyreactivity |
| QVQLVESGGGLVQAGGSHRLSCASSGRTFYRNAMGWYRQPPGKERELVAAISSGTSTNYADSVKGRFTISRDNAKNTVYLQMNSLKPEDTAVYYCAKERPRGAPAYYSRIYDYWGQGTQVTVSS | high polyreactivity |
| QVQLVESGGGLVQAGGSHRLSCASSGSTFLPNAMGWYRQPPGKERELVAAITNSGGNTYADSVKGRFTISRDNAKNTVYLEMNSLKPEDTAVYYCNARFSPTGWARGNDYWGQGTQVTVSS | low polyreactivity |
| QVQLVESGGGLVQAGGSHRLSCSASGQTFVKNAMGWYRQAPGKERELVAAITVSGSRTYYADSVKGRFTISRDNAKNTVYLQMNSLKPEDTAVYYCAAKTADRFAPYYYWGQGTQVTVSS | high polyreactivity |
| QVQLVESGGGLVQAGGSHRLSSAASARIFAVNVMGWYRQAPGKERELVAAISWSDDIKYYADSVKGRFTISRDNAKNTVYLQMNSLKPEDTAVYYCAADFLPLHADDDDEDYWGQGTQVTVST | high polyreactivity |
| QVQLVESGGGLVQAGGSHRLSSAASGGIFGKYAMGWYRQAPGKEMDLVAAITWNGGRTYYADSVKGRFTISRDNAKYTLYLQMNSLKPVDTAVHFCAVDDAYPDRYDYWGQGSQVTVSS | high polyreactivity |
| QVQLVESGGGLVQAGGSHRVSCAASGYIFLHYAMGWYRQATGKEREFVAAITYSGGNTYYADSVKGRFTISRDNAKNTVYLQMISLKPEDTAGYYCAKTRIYSKHWTEPYFYRVDSWGQGTQVTVSS | high polyreactivity |
| QVQLVESGGGLVQAGGSIRFSCAASGRIFAHYAMGWYRPAPGKERELVAAISSSGTRTYYADSVKGRFTISRDNAKNTVYLQMNSLKPEDTAVFYCAKDSYHTVWGGYWGQGTQVTVSS | high polyreactivity |
| QVQLVESGGGLVQAGGSIRLRCAASGITFYYYAMGWYRQAPAKERELVAAISRSGITYYADSVKGRFTISRDNAKNSVYLQMNSLKPEDTAVYYGAAGRRFDQSMYYGGQGTQVTVSS | high polyreactivity |

| Sequence | polyreactivity (PSR sort gate) |
| --- | --- |
| QVQLVESGGGLVQAGGSIRLSCAASGFIFKWYAMGWYRQAPGKERELVAVINRSGSTYYADSVKGRFTISRDNAKNTVYLQMNSLKPEDTAVYYCAAVQQYSSVYYYTYDYWGQGTQVTVSS | high polyreactivity |
| QVQLVESGGGLVQAGGSIRLSCAASGFIFWANAMGWYIQAPGKERELVAAISGSGGRTYYADSVKGRFTISRDNAKNTVYLQMNSLKPEDTAVYYCAAKVSAWKKKSEMNYWGQGTQVTVSS | high polyreactivity |
| QVQLVESGGGLVQAGGSIRLSCAASGFNFRWYAMGWYRQAPGKERELVAAIRSGGSTNYADSVKGRFTIARDNAKNTVSLQMNSLKPEDRAVYYCAAERTSYYYSNDYWGQGTQVTVSS | high polyreactivity |
| QVQLVESGGGLVQAGGSIRLSCAASGGTFSYYAMGWYRQAPGKESELVAAISGNGDTTYYADSVKGRFTISRDNAKNTDYVQMNSLKPEDTAVYYCATAFSYGGGAYDYWGQGTLVTVSS | low polyreactivity |
| QVQLVESGGGLVQAGGSIRLSCAASGIIFLGNAMGWYRQAPGIERELVAAITASGTTSYYADSVKGRFTISRDNAKNTVSLQMNSLKPEDTAVDYCAAQSTWYDFYYWVQGTQVTVSS | low polyreactivity |
| QVQLVESGGGLVQAGGSIRLSCAASGITFYKYAMGWYRQAPGKERELVAAISGNGGSTYYADSVKGRFTISRDYAKNTVYLQMNSLKPEDTAVYFCNRGYRRTDNYWGQGTQVTVSS | high polyreactivity |
| QVQLVESGGGLVQAGGSIRLSCAASGITFYRNAMGWYRQAPGKEKELVAAITWNGGRTYYADSVKGRFTISRDNAKNTVYLQMNSLKPEDTAVYYCAAAYPTYRHYYWGQGTQVTVSS | low polyreactivity |
| QVQLVESGGGLVQAGGSIRLSCAASGRIFAYNPMGWSRQAPGKERELVAVITSGRSTNYADSVKGRFTISRDNEKNNVYLQMNSLKPVDTAFYYCAKRPYGRSGGSRYDYWGQGTQGTVSS | high polyreactivity |
| QVQLVESGGGLVQAGGSIRLSCAASGRIFGRYAMGWYRQAPGKEMELVATITWRGGITYYADSVKGRFTISRDNAKNTVYLQLKRLKPEDNAVYYCAAGYGRIPYEYWGQGTQVTVSS | high polyreactivity |
| QVQLVESGGGLVQAGGSIRLSCAASGRTFKKYAMGWYRQAPGKERELVAAITGSGGSTYYADSVKGRFTISRDNAKNTVYLQINSLKPEDTAVYYCAAYAYGVGHSQDGGNYWGQGNQVTVSS | low polyreactivity |
| QVQLVESGGGLVQAGGSIRLSCAASGSIFTINTMGWYRQAPGKERELVAAISKRGGSTYYADSVKGRFTISRDNAKNTVYLQKNSLKPEDTAVYYCAARQFYKYYYWGQGTQVTVSS | high polyreactivity |
| QVQLVESGGGLVQAGGSIRLSCAASGSIYKSNTMGRYRQAPGKEREFVAAISWGGGSTYYADSVKGRFTISRDNAKHTVYLQMNSLKPEDTAVYYCATRPGTRPAYDYWGQGTQVTVSS | high polyreactivity |
| QVQLVESGGGLVQAGGSIRLSCAASGSTFYLYAMGWSRPAPGKERELVATITNGGGTNYADSVKGRFTISRDNEKNTVYIQMNTLKPEDTAVYYCAATWYHRDGDYWGQGTQVTVSS | low polyreactivity |
| QVQLVESGGGLVQAGGSISLSCAASGYIFHVYAMGWYRQAPGKERELVAAITSSGGSTYYADSVKGRFTISRDNAKNTVYLQMNSLKPEDTAVYYCAAAPCSFRYRYVVFTFGYWGQGTQVTVSS | high polyreactivity |
| QVQLVESGGGLVQAGGSLCLSCAASGIFVYNAMGWYRQAPGKEREFVAAINKSGASTFYADSVKGRFTISRDNAKNTVYLQMNSLKPEDTAVYYCRERDYWGQGTQVTVSS | low polyreactivity |
| QVQLVESGGGLVQAGGSLGLSCAASGFIFDAYAMGWYRQAPGKERELVAGISIGGRTNYADSVKGRFTISRDNAKNTVYLQMNSLKPEDTAVYYCAARNYRYYYGSYYRGPITNYEYWGQGTQVTVSS | low polyreactivity |
| QVQLVESGGGLVQAGGSLGLSCAASGGILQSYAMGWYRQAPGKERELVATITYSAGSTYYADSVKGRFTISRDNAKNTVYLQMKSLKPEDTAVYVCAARRIPPARYKGYYYWGQGTQLTVSS | high polyreactivity |
| QVQLVESGGGLVQAGGSLGLSCAASGIIFGKYAMGWYRQAPGKERELVASITVDGGTTYYADSVKGLFTISRDNANNTVYLQMNSLKPEDTAVYYCATGVFAELWFDYWPYDYWGQGTQVTVSS | high polyreactivity |
| QVQLVESGGGLVQAGGSLGLSCAASGITFYTYPMGLYRQAPGKERELVAAISRRGGSTYYADSVKGRFTISRDNAKNTVYLHLNSLKPEDTAVYYCNAVADCYSGFDGYYYWGQGTQVTVSS | high polyreactivity |
| QVQLVESGGGLVQAGGSLGLSCAASGRIFARYAMGWYRQAPGKERELVAAITKSVGSTYYADSVKGRFTISRDNAKNTVYLQMNIMKPEDTAVYYCAARYRGGYYFGYETYYYWGQGTQVTVSS | high polyreactivity |
| QVQLVESGGGLVQAGGSLGLSCAASGRTFGYYAMGWYRQAPGTERALVAAIRSTGSTNYADSVKGRFTISRDNAKNTVYLQMNSLIPEDTAVYYCYAKRRFRYDYWGQGTQVTVSS | low polyreactivity |
